{"source": "paper PMC3749939", "binders": {"B1": {"name": "NAP1L1 (natural protein)", "chain": "MADIDNKEQSELDQDLEDVEEVEEEETGEETKIKARQLTVQMMQNPQILAALQERLDGLVDTPTGYIESLPKVVKRRVNALKNLQVKCAQIEAKFYEEVHDLERKYAVLYQPLFDKRFEIINAIYEPTEEECEWKPDEEDEVSEELKEKAKIEDEKKDEEKEDPKGIPEFWLTVFKNVDLLSDMVQEHDEPILKHLKDIKVKFSDAGQPMSFVLEFHFEPNDYFTNEVLTKTYRMRSEPDDSDPFSFDGPEIMGCTGCQIDWKKGKNVTLKTIKKKQKHKGRGTVRTVTKTVSNDSFFNFFAPPEVPENGDLDDDAEAILAADFEIGHFLRERIIPRSVLYFTGEAIEDDDDDYDEEGEEADEEGEEEGDEENDPDYDPKKDQNPAECKQQ"}}, "biological_target": "Mutant H2A.Z^AP3-YFP (mouse)", "test": "co-IP; immunoprecipitation with GFP antibodies of the YFP-tagged histone from dox-induced transgenic ESCs (endogenous H2A.Z knockdown background), immunoblot of the partners; uninduced cells (No DOX) as negative controls; densitometry in ImageJ"}
{"binder": "B1", "values": [{"measurement": "fold of NAP1L1 bound against H2A.Z^WT", "result": "< 2", "unit": "fold"}]}
